From PMC10786891, “Massively parallel profiling of RNA-targeting CRISPR-Cas13d”
Numbering of substitutions follows the chain as printed. Names may count otherwise.

T1: EsCas13d, nuclease-dead (Eubacterium siraeum, UniProt B0MS50, R295A;H300A;R849A;H854A)
T1 sequence: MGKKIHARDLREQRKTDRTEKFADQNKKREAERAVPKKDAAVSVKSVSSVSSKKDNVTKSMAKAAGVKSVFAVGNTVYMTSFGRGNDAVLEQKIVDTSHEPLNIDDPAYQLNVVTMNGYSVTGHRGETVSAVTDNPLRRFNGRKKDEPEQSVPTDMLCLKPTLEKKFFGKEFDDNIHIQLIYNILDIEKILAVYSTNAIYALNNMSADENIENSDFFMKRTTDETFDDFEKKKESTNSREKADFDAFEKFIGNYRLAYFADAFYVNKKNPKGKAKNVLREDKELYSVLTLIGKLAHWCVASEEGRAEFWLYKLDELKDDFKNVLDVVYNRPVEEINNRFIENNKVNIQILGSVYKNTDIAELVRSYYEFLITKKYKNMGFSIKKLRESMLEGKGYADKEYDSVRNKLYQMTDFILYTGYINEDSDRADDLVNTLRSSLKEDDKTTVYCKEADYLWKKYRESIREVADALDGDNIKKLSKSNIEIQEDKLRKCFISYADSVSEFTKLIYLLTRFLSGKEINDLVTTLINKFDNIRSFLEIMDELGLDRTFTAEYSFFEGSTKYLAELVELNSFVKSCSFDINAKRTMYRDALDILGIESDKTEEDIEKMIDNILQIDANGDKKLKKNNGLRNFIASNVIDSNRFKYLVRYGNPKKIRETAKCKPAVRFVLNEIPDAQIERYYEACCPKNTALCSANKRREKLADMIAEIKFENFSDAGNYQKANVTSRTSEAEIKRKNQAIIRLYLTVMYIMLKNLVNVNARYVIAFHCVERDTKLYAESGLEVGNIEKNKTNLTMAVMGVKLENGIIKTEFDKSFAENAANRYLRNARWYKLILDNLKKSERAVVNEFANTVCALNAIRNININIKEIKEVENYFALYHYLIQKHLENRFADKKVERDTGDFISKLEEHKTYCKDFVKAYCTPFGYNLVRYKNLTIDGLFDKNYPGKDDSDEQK

B1: target 1 insU 3' of 20,insU 3' of 15 (mixed)
RNA 1: CACCCGUGCAAAAAUGCAGGGGUCUAAAACUGAGCGGAUAACCUCUCUAUGG
RNA 2: GGGAAUGGAUCCACAUCUACGAAUUCGUACCAUUAGAGUAGGUUAUCCGCUCACCGAGAUCGGAAGAGCACACGU
B2: target 1 insA 3' of 22,insG 3' of 19 (mixed)
RNA 1: B1 RNA 1
RNA 2: B1 RNA 2 with C31A, A32C, U33A, A35G, G36A, A37G, G38A, U39G
B3: target 1 insA 3' of 17,insA 3' of 13 (mixed)
RNA 1: B1 RNA 1
RNA 2: B1 RNA 2 with U34A, A35G, G36A, U39A, A40G, G41A
B4: target 1 G5U,G13U (mixed)
RNA 1: B1 RNA 1
RNA 2: GGGAAUGGAUCCACAUCUACGAAUUCGUACCAUAGAGAUGUUAUCCUCUCACCGAGAUCGGAAGAGCACACGU
B5: target 1 insU 3' of 18,insG 3' of 6 (mixed)
RNA 1: B1 RNA 1
RNA 2: B1 RNA 2 with U34A, A35U, U39A, A40G, G42U, U44A, A45U, U46C, C48G
B6: target 1 U11C,G12A (mixed)
RNA 1: B1 RNA 1
RNA 2: B4 RNA 2 with U39G, G40A, U41C, U47G
B7: target 1 insA 3' of 22,insG 3' of 1 (mixed)
RNA 1: B1 RNA 1
RNA 2: GGGAAUGGAUCCACAUCUACGAAUUCGUACACAUAGAGAGGUUAUCCGCUCAGCCGAGAUCGGAAGAGCACACGU
B8: target 1 insC 3' of 5,insU 3' of 4 (mixed)
RNA 1: B1 RNA 1
RNA 2: GGGAAUGGAUCCACAUCUACGAAUUCGUACCAUAGAGAGGUUAUCCGCCUUCACCGAGAUCGGAAGAGCACACGU
B9: target 1 C7U,G17A (mixed)
RNA 1: B1 RNA 1
RNA 2: B4 RNA 2 with G35A, U39G, C45U, U47G
B10: target 1 insA 3' of 6,insA 3' of 6 (mixed)
RNA 1: B1 RNA 1
RNA 2: B8 RNA 2 with G47A, C48A, C49G, U50C
B11: target 1 insC 3' of 22,insG 3' of 3 (mixed)
RNA 1: B1 RNA 1
RNA 2: B7 RNA 2 with A31C, C51G, A52C, G53A
B12: target 1 U11G,G12C (mixed)
RNA 1: B1 RNA 1
RNA 2: B4 RNA 2 with U39G, G40C, U41G, U47G
B13: target 1 insU 3' of 15,insA 3' of 10 (mixed)
RNA 1: B1 RNA 1
RNA 2: B1 RNA 2 with U34A, A35G, G36A, A37G, G38U, U39A, A40G, G42U, U44A
B14: target 1 C4G,C6U (mixed)
RNA 1: B1 RNA 1
RNA 2: B4 RNA 2 with U39G, C46U, U47G, C48G
B15: target 1 insA 3' of 19,insC 3' of 8 (mixed)
RNA 1: B1 RNA 1
RNA 2: B1 RNA 2 with U34A, U39A, A40G, G42U, U44A, A45U, U46C
B16: target 1 insG 3' of 14,insU 3' of 12 (mixed)
RNA 1: B1 RNA 1
RNA 2: B8 RNA 2 with U41G, A43U, C45A, C46U, G47C, C49G, U50C
B17: target 1 insG 3' of 16,insC 3' of 5 (mixed)
RNA 1: B1 RNA 1
RNA 2: B8 RNA 2 with A38G, G39A, U41G, A43U, U44A, C45U, G47C, C48G, U50C
B18: target 1 insA 3' of 19,insA 3' of 19 (mixed)
RNA 1: B1 RNA 1
RNA 2: B1 RNA 2 with U34A, G36A, A37G, G38A, U39G
B19: target 1 insA 3' of 17,insC 3' of 17 (mixed)
RNA 1: B1 RNA 1
RNA 2: B1 RNA 2 with U34A, A35G, G36A, A37C, G38A, U39G
B20: target 1 insA 3' of 8,insG 3' of 8 (mixed)
RNA 1: B1 RNA 1
RNA 2: B8 RNA 2 with C45A, C46G, G47C, C49G, U50C
B21: target 1 insC 3' of 22,insA 3' of 2 (mixed)
RNA 1: B1 RNA 1
RNA 2: B7 RNA 2 with A31C, G53A
B22: target 1 A1G,G15C (mixed)
RNA 1: B1 RNA 1
RNA 2: B4 RNA 2 with G37C, U39G, U47G, A51G
B23: target 1 insG 3' of 14,insA 3' of 11 (mixed)
RNA 1: B1 RNA 1
RNA 2: B8 RNA 2 with U41G, C45A, C46U, G47C, C49G, U50C
B24: target 1 insU 3' of 18,insA 3' of 11 (mixed)
RNA 1: B1 RNA 1
RNA 2: B1 RNA 2 with U34A, A35U, U39A, A40G, G42U, U43A
B25: target 1 insU 3' of 20,insU 3' of 6 (mixed)
RNA 1: B1 RNA 1
RNA 2: B1 RNA 2 with U39A, A40G, G42U, U44A, A45U, U46C, C48U
B26: target 1 insC 3' of 19,insA 3' of 7 (mixed)
RNA 1: B1 RNA 1
RNA 2: B1 RNA 2 with U34C, U39A, A40G, G42U, U44A, A45U, U46C, C47A
B27: target 1 insA 3' of 10,insA 3' of 8 (mixed)
RNA 1: B1 RNA 1
RNA 2: B8 RNA 2 with U44A, C45U, C46A, G47C, C49G, U50C
B28: target 1 insC 3' of 22,insC 3' of 19 (mixed)
RNA 1: B1 RNA 1
RNA 2: B1 RNA 2 with A32C, U33A, A35C, G36A, A37G, G38A, U39G
B29: target 1 insC 3' of 8,insC 3' of 5 (mixed)
RNA 1: B1 RNA 1
RNA 2: B8 RNA 2 with G47C, C48G, U50C
B30: target 1 insC 3' of 8,insU 3' of 6 (mixed)
RNA 1: B1 RNA 1
RNA 2: B8 RNA 2 with G47C, C48U, C49G, U50C
B31: target 1 insU 3' of 13,insU 3' of 4 (mixed)
RNA 1: B1 RNA 1
RNA 2: B8 RNA 2 with G40U, U41G, A43U, U44A, C45U, G47C, C48G
B32: target 1 insG 3' of 19,insU 3' of 12 (mixed)
RNA 1: B1 RNA 1
RNA 2: B1 RNA 2 with U34G, U39A, A40G, G42U
B33: target 1 G5C,U11G (mixed)
RNA 1: B1 RNA 1
RNA 2: B4 RNA 2 with U39G, U41G, U47C
B34: target 1 C7A,G17A (mixed)
RNA 1: B1 RNA 1
RNA 2: B4 RNA 2 with G35A, U39G, C45A, U47G

Biological target: T1, EsCas13d, nuclease-dead
Test: crRNA (strand 1, pre-loaded); Mg2+; 40 mM Tris-HCl pH 7.5, 150 mM NaCl, 6 mM MgCl2, 1 mM DTT, 0.1% Tween-20, 0.2 mg/ml BSA; 25 C; 10 min per concentration, then washed
Conditions: tags: His6-TwinStrep-SUMO cleaved; N-terminal SNAP kept (SNAP-Surface 488); label: 3' end held by stalled T7 RNA polymerase

Binder	Kd
B1	19.1 ± 1.6 nM
B2	51 ± 7 nM
B3	10 ± 0.7 nM
B4	64 ± 8 nM
B5	33.2 ± 2.9 nM
B6	8.9 ± 0.4 nM
B7	11.2 ± 0.4 nM
B8	15.7 ± 1.3 nM
B9	34 ± 4 nM
B10	17.4 ± 0.9 nM
B11	11 ± 0.7 nM
B12	17 ± 1 nM
B13	20.2 ± 1.1 nM
B14	3.83 ± 0.2 nM
B15	34 ± 4 nM
B16	16.4 ± 2.4 nM
B17	52 ± 5 nM

Binder	Kd
B18	22.1 ± 2.4 nM
B19	41.4 ± 2.9 nM
B20	33.1 ± 2.6 nM
B21	24 ± 4 nM
B22	58 ± 9 nM
B23	39.2 ± 2.6 nM
B24	68 ± 6 nM
B25	15.4 ± 0.6 nM
B26	26.6 ± 2.4 nM
B27	11.3 ± 0.4 nM
B28	~70 nM
B29	14.6 ± 0.7 nM
B30	21.1 ± 1.5 nM
B31	21 ± 2.6 nM
B32	48 ± 5 nM
B33	37 ± 5 nM
B34	51 ± 5 nM
